B1: Endo-Si D241Q/Q311L (protein)
chain: MNKRLLVKRTFGCVCAAAILGVAPLSHPTIVEAREELKMPNGLEQSIADVEAKIDALTYLSKNSKDEFKHSMYEIPSNREHKPVSPKQALQNAKKADAQAERLAKMTIPKKEELKALEGPLYGGYFRTWQDKTSDPTETNKVNSFGELPKEVDLAFVFHDYTKDYSLFWEELATKQVPKLNKQGTRVIRTIPWRFLSGADHSDISADKEKFPNTEAGNKALAKAIVDEYVYKYNLDGLDIQIERDSVPKVNDKEDPEALARTVEVFKEIGKLIGANGADKSRLLIMDTTYTAEENPLIKETAQYLNLLLVLVYGFSGENGNYLHHKNILDETSSMEGRWQGYSKYIRPEQYMVGFSFYEEKDFNNRWKDINEEDPSDPHIGEKIQGTRAERYAKWQPKTGGLKGGLFSYAIDRDGVAQPKQKTEHPELDKIVKSEYKVSKALKKLMMTDDQYQPIDQSDFPDKALRESIIKQVGTRRGDLERFKGTLRLDNPEIKDLTGLNKLKRVAKLELINLPKITKIDKDDLPQNLKPLTDNQKSNLEIKGTYDDSKLYKDIPAFDLVISGLSGLESLDISGHQRDTLSGIDASTLPSLKAINISDNHFDLAQGTENRHILDTILATLAKNGASTASFDKQKPKGLYPESYSTAPLHLQVGQGKINVIDDLIFGTRTNQNTLINTENDFEAYKEQTIQGKPFIAPDYLYDNFKVSYKEYSASIVDSTLAETTDKTIDTAKAETYQVTVSNKDGKTVHSVKVIVGDEKPMMVNLAQDAKIIGTDNMTQSAKVFDGQKDQFLLSWNKDSSVIFELKTPGTAKHWRFFDDGKNDSVTLSVFKGDASNFETEKDKAENWVEITKDSRKNDDKVFSSPLEVDNAKYLKVTIKKEAKYIYFNELQILGYPGVVAKKTADDLRPTEADKSDDKSDKNDTEAK
modifications: Amino acid sequence of Endo-Si D241Q/Q311L
B2: Endo-Si D241Q/E360Q (protein)
chain: B1 chain with L311Q, E360Q
modifications: Amino acid sequence of Endo-Si D241Q/E360Q
B3: Endo-Si D241M (protein)
chain: B1 chain with Q241M, L311Q
modifications: Amino acid sequence of Endo-Si D241M
B4: Endo-Rp W278F/N172D/F307Y (protein)
chain: MPSLQLQPDDKLAPVSFALKSMNELRDWTPDEKIKFNVSSVALQPRVKNALKPQLLLTHDMAGGYKEDKNIQGNNYKDIYNIQYWHLADTFVYFSHERVSIPPVNWTNACHRNGVKCLGTFLVEGNNQMHEMEALLHGPPLLNNTDDPMRLWSPYYADQLVAIAKHYGFDGWLFDIECEFFPFPTNPKFKAEELAKFLHYFKEKLHNEIPGSQLIWYDSMTNEGEIHWQNQLTWKNELFFKNTDGIFLNYWWKKEYPEMARRVAEGIGRSGLEVYFGTDVFGRHTYGGGGFKSYKGVKTAYSAMTSSALYGMAWTYEHFEKSEFEKMDRLFWCGGKYSDYPPPPPKNPDDEKEVESDDSEDELMYGHKKGIADTVESIPVPGTDWFVTNFDRGFGNRFYYRGKRLLSQPWSHLSHQAILPNKSYRNPEIYPTDQNIKITSSLDCDHGAFLGGTSLIIKGQRFNHRESHDVETEISIPLYKLSLDASKGCSLRYIYRTLLMKDVKLTVACHFSLKTNDSVNFFKVWQPDENFSFEYDDGMRATVTTENSTESRCFLLRTTEEDTGENDWITKTINVPAVPEGSQLYITRLEVSVVLDTAGLVGLVNQVIACLGYISIIPTINSGIKTDSSRIIQDLFWKDQKYTKIGKESLDDIAQEEVHRYYGTLNWENTANVVNAWEEIDYYNVFYKESDDSATRIFLGTAFCNQFRVSGLDIILSKLPKIVIEAVNKEGYISSSGSIDLSLN
B5: Endo-Rp Y214F/F307Y/L306I (protein)
chain: B4 chain with D175N, Y217F, F281W, L309I
B6: Endo-Rp W278F/N172D/F307H (protein)
chain: B4 chain with Y310H
B7: Endo-Rp W278F/N172D/A310D (protein)
chain: B4 chain with Y310F, A313D

Substitutions are numbered along the chain they refer to. Numbers in names are those of the source.

Results on seven molecules are retold here after patent publication US20240336907A1, “NOVEL ENDO-ß-N-ACETYLGLUCOSAMINIDASE” (priority 2020, published 2024).

The subject of the first assay is (Fucα1,6)GlcNAc-mAb2. As to the kind of experiment: Transglycosylation activity with sugar chain oxazoline [N3-PEG(3)]-MSG1(9)-Ox as donor. Type of assay: biochemical. The note with it: 1 h; donor [N3-PEG(3)]-MSG1(9)-Ox (8 eq.), enzyme 1.25 μg, 28° C., pH 7.5. How it is done: Transglycosylation activity was evaluated as follows. […] A sample was taken from each of the reaction solutions at 1, 2, 4, 6, and 24 hours after initiation of the reaction and analyzed for protein by a fully automated electrophoresis system as mentioned above. In the chromatogram obtained, an unreacted product and transglycosylated molecule, mAb2-(MSG1-N3)2 were confirmed as discrete peaks. The transglycosylation rate was calculated based on the peak-area ratio between the unreacted product and the transglycosylated molecule in accordance with the following expression.
Transglycosylation rate (%)=[[peak area of mAb2-(MSG1-N3)2-derived H chain]/{[peak area of (Fucα1,6)GlcNAc-mAb2-derived H chain]+[peak area of mAb2-(MSG1-N3)2-derived H chain]}]×100
Similarly, the transglycosylation rates of individual Endo-Si mutant enzymes at each time period for a reaction were calculated (Table 5).
Consider B1, for which the Transglycosylation rate stood at 5.7%.

B2: the Transglycosylation rate came out at 73.5%.

B3: the Transglycosylation rate is on record as 98.8%.

Staying with this assay, now noted: 2 h; donor [N3-PEG(3)]-MSG1(9)-Ox (8 eq.), enzyme 1.25 μg, 28° C., pH 7.5.
As to B1, the Transglycosylation rate is given as 11.6%.

B2 returned a Transglycosylation rate of 96.8%.

Molecule B3 returned a Transglycosylation rate of 98.9%.

The assay is the same for the next values; noted with them: 4 h; donor [N3-PEG(3)]-MSG1(9)-Ox (8 eq.), enzyme 1.25 μg, 28° C., pH 7.5.
B1 registered a Transglycosylation rate of 27.4%.

For the molecule B2, the Transglycosylation rate is listed as 99.0%.

Consider B3, for which the Transglycosylation rate was found to be 97.4%.

Still in this assay, the particulars now being: 6 h; donor [N3-PEG(3)]-MSG1(9)-Ox (8 eq.), enzyme 1.25 μg, 28° C., pH 7.5.
Molecule B1 came in with a Transglycosylation rate of 44.4%.

Molecule B2 gave a Transglycosylation rate of 99.6%.

With B3, the Transglycosylation rate is recorded as 97.5%.

The assay is the same for the next values; noted with them: 24 h; donor [N3-PEG(3)]-MSG1(9)-Ox (8 eq.), enzyme 1.25 μg, 28° C., pH 7.5.
For the molecule B1, the Transglycosylation rate turned out to be 99.3%.

In turn, B2 yielded a Transglycosylation rate of 98.9%.

For the molecule B3, the Transglycosylation rate is listed as 75.0%.

Another assay concerns (Fucα1,6)GlcNAc-mAb2. As to the kind of experiment: Transglycosylation activity with SGP as donor, in combination with Endo-M N175Q. Type of assay: biochemical. The note with it: 2 h; donor SGP (50 eq.), Endo-M N175Q 2.5 mU, Endo-Si enzyme 10 μg, 23° C., pH 7.5. The method, then:
Transglycosylation activity was evaluated as follows. A 50 mM (sodium) phosphate buffer (pH 7.5) solution (17 μL) containing (Fucα1,6)GlcNAc-mAb2 (0.5 mg), SGP (0.485 mg (50 eq.)), Endo-M N175Q (manufactured by Tokyo Kasei Kogyo Co., Ltd.) (2.5 mU) and each of various Endo-Si mutant enzymes (10 μg), was prepared and incubated at 23° C. A sample was taken from each of the reaction solutions at 2, 4, 6, 24, and 48 hours after initiation of the reaction and analyzed for protein by a fully automated electrophoresis system as mentioned above. In the chromatogram obtained, an unreacted product and a transglycosylated molecule, mAb2-(SG)2 are confirmed as discrete peaks. The transglycosylation rates were obtained based on the peak area ratio between the unreacted product and the transglycosylated molecule in accordance with the following expression.
Similarly, transglycosylation rates of individual Endo-Si mutant enzymes at each time period of a reaction were calculated (Table 6).
With B1, the Transglycosylation rate was 2.6%.

As to B2, the Transglycosylation rate is 8.9%.

For the molecule B3, the Transglycosylation rate stood at 12.8%.

The assay is the same for the next values; noted with them: 4 h; donor SGP (50 eq.), Endo-M N175Q 2.5 mU, Endo-Si enzyme 10 μg, 23° C., pH 7.5.
With B1, the Transglycosylation rate came to 5.6%.

Take B2: the Transglycosylation rate turned out to be 20.0%.

In the case of B3, the Transglycosylation rate was 27.9%.

Still in this assay, the particulars now being: 6 h; donor SGP (50 eq.), Endo-M N175Q 2.5 mU, Endo-Si enzyme 10 μg, 23° C., pH 7.5.
As to B1, the Transglycosylation rate is given as 8.2%.

Consider B2, for which the Transglycosylation rate worked out at 30.3%.

With B3, the Transglycosylation rate worked out at 40.5%.

The assay is the same for the next values; noted with them: 24 h; donor SGP (50 eq.), Endo-M N175Q 2.5 mU, Endo-Si enzyme 10 μg, 23° C., pH 7.5.
B1: the Transglycosylation rate was found to be 48.6%.

On to B2, for which the Transglycosylation rate amounted to 94.4%.

B3: the Transglycosylation rate came out at 96.5%.

The assay is the same for the next values; noted with them: 48 h; donor SGP (50 eq.), Endo-M N175Q 2.5 mU, Endo-Si enzyme 10 μg, 23° C., pH 7.5.
Consider B1, for which the Transglycosylation rate is 76.3%.

With B2, the Transglycosylation rate was 98.5%.

As for B3, the Transglycosylation rate was determined as 96.8%.

The subject of the next assay is (Fucα1,6)GlcNAc-mAb2. As to the kind of experiment: One-pot method: Endo-Rp mutant enzymes (enzyme A) combined with Endo-Si D241Q, SGP donor. Type of assay: biochemical. The note with it: 2 h; Endo-Rp mutant enzyme 8 μg with Endo-Si D241Q 5 μg, SGP (50 eq.), 28° C., pH 7.5. How it is done:
Using Endo-Rp, which is known to transfer a sugar chain from a sugar chain donor, SGP, to a GlcNAc derivative, as a representative of enzyme A, the property of enzyme A that can be used in combination with Endo-Si was investigated.
The transglycosylation activity on an antibody by the one-pot method was evaluated as follows. A 50 mM (sodium) phosphorate buffer (pH 7.5) solution (17 μL) containing (Fucα1,6)GlcNAc-mAb2 (0.5 mg), SGP (0.485 mg (50 eq.)), Endo-M N175Q (manufactured by Tokyo Kasei Kogyo Co., Ltd.) (2.5 mU) or each of various Endo-Rp mutant enzymes (8 μg) and Endo-Si D241Q (5 μg) was prepared and incubated at 28° C. A sample was taken from each of the reaction solutions at 2, 4, 6, 24, and 48 hours after initiation of the reaction and analyzed for protein by a fully automated electrophoresis system as mentioned above. In the chromatogram obtained, the transglycosylation rate was calculated in accordance with the formula for computation described in Example 5.
Consider B4, for which the “Change in transglycosylation rate (%) with time” value (“Change … (%) with time” below) came to 12.0%.

With B5, the “Change … (%) with time” value stood at 34.5%.

Consider B6, for which the “Change … (%) with time” value worked out at 8.8%.

As for B7, the “Change … (%) with time” value is 0.0%.

The assay is the same for the next values; noted with them: 4 h; Endo-Rp mutant enzyme 8 μg with Endo-Si D241Q 5 μg, SGP (50 eq.), 28° C., pH 7.5.
On to B4, for which the “Change … (%) with time” value was 19.0%.

In the case of B5, the “Change … (%) with time” value is 53.0%.

Consider B6, for which the “Change … (%) with time” value is recorded as 13.4%.

For the molecule B7, the “Change … (%) with time” value is listed as 0.0%.

Staying with this assay, now noted: 6 h; Endo-Rp mutant enzyme 8 μg with Endo-Si D241Q 5 μg, SGP (50 eq.), 28° C., pH 7.5.
For the molecule B4, the “Change … (%) with time” value amounted to 24.9%.

Consider B5, for which the “Change … (%) with time” value is given as 63.4%.

With B6, the “Change … (%) with time” value amounted to 17.7%.

B7: the “Change … (%) with time” value is reported as 0.0%.

Staying with this assay, now noted: 24 h; Endo-Rp mutant enzyme 8 μg with Endo-Si D241Q 5 μg, SGP (50 eq.), 28° C., pH 7.5.
For the molecule B4, the “Change … (%) with time” value worked out at 76.5%.

B5: the “Change … (%) with time” value is 87.4%.

With B6, the “Change … (%) with time” value was determined as 66.1%.

In the case of B7, the “Change … (%) with time” value is reported as 8.5%.

Staying with this assay, now noted: 48 h; Endo-Rp mutant enzyme 8 μg with Endo-Si D241Q 5 μg, SGP (50 eq.), 28° C., pH 7.5.
On to B4, for which the “Change … (%) with time” value came to 93.1%.

With B5, the “Change … (%) with time” value was determined as 88.8%.

With B6, the “Change … (%) with time” value came out at 91.1%.

Regarding B7, the “Change … (%) with time” value turned out to be 17.0%.
